Measurements taken from patent publication US6376217.

Target: T1, human CD5 cell differentiation marker (human, UniProt P06127 25-495)
T1 sequence: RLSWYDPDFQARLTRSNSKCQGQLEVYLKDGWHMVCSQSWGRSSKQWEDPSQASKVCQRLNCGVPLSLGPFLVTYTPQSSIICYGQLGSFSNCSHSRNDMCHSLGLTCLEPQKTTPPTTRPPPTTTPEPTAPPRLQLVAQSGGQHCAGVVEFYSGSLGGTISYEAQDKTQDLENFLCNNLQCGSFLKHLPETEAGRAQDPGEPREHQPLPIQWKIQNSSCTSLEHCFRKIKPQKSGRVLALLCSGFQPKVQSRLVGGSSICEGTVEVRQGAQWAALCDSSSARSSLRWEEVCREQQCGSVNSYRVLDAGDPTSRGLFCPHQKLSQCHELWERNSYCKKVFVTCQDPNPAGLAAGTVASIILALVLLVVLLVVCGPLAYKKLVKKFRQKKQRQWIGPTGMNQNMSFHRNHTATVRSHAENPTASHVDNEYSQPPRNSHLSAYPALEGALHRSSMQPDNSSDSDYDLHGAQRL
Assay: cell-based or functional assay

B1: he3Fab-rGelA50(C44) (other)
heavy: EIQLVQSGGGLVKPGGSVRISCAASGYTFTNYGMNWVRQAPGKGLEWMGWINTHTGEPTYADSFKGRFTFSLDDSKNTAYLQINSLRAEDTAVYFCTRRGYDWYFDVWGQGTTVTVSS
light: DIQMTQSPSSLSASVGDRVTITCRASQDINSYLSWFQQKPGKAPKTLIYRANRLESGVPSRFSGSGSGTDYTLTISSLQYEDFGIYYCQQYDESPWTFGGGTKLEIK
chain: GLDTVSFSTKGATYITYVNFLNELRVKLKPEGNSHGIPLLRKKCDDPGKAFVLVALSNDNGQLAEIAIDVTSVYVVGYQVRNRSYFFKDAPDAAYEGLFKNTIKTRLHFGGSYPSLEGEKAYRETTDLGIEPLRIGIKKLDENAIDNYKPTEIASSLLVVIQMVSEAARFTFIENQIRNNFQQRIRPANNTISLENKWGKLSFQIRTSGANGMFSEAVELERANGKKYYVTAVDQVKPKIALLKFVDKDPK
With B1 the “IC50 (pMT), whole cell cytotoxicity, CEM Cells” value was 173 pMT.
